In patent US20250051474A1, “ANTI-CD97 ANTIBODIES AND ANTIBODY-DRUG CONJUGATES” (New York University, priority 2023, published 2025):
Residue numbers refer to the chain shown, from its start.

Key:
Experiment in all cases: cell-based binding assay: CD97 GAIN mutant transiently expressed on ExpiCHO cells, A8 Fab titrated, flow cytometry MFI, 1:1 fit; upper panel
[1] = target: T1, Q365A (human, UniProt P48960)
T1 construct: transiently expressed on the surface of ExpiCHO cells, gated by anti-V5 tag staining; also called CD97 GAIN mutant Q365A expressed on ExpiCHO cells
T1 sequence (receptor, looked up): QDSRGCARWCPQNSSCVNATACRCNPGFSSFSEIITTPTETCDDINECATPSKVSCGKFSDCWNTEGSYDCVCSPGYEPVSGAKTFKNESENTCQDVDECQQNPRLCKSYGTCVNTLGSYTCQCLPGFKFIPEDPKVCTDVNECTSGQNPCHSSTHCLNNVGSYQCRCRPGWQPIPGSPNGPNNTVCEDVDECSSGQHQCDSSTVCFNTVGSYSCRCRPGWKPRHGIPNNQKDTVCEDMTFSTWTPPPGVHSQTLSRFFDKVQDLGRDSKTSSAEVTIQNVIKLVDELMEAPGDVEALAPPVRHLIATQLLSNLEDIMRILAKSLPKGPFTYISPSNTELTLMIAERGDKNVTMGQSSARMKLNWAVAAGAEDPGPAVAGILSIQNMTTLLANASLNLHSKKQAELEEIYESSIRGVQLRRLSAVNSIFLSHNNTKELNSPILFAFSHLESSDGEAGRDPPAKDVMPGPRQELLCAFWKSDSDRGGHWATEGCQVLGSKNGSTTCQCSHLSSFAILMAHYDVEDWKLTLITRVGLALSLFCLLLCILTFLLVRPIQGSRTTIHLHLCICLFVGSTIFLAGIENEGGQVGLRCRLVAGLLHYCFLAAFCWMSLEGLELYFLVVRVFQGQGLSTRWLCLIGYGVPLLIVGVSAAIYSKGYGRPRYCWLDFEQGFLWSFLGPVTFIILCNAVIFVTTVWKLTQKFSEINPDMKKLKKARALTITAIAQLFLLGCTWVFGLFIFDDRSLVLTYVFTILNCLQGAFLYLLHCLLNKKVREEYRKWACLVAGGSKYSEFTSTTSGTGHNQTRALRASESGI
Method: (§1) KD values were determined from the curve fitting of a 1:1 binding model.

[2] = target: T2, CD97 GAIN mutant Q376A expressed on ExpiCHO cells (human, UniProt P48960 21-835)
T2 construct: numbering of isoform 1; whole entry named
T2 sequence: T1 sequence (receptor, looked up) with A345Q, Q356A
Method: as §1

[3] = target: T3, R380A (human, UniProt P48960)
T3 construct: transiently expressed on the surface of ExpiCHO cells, gated by anti-V5 tag staining; also called CD97 GAIN mutant R380A expressed on ExpiCHO cells
T3 sequence (receptor, looked up): T1 sequence (receptor, looked up) with A345Q, R360A
Method: as §1

B1: Antibody clone A8, Fab format (Fab, V domains shown)
VH: EVQLVESGGGLVQPGGSLRLSCAASGFTISSYSIHWVRQAPGKGLEWVASISPYYGSTSYADSVKGRFTISADTSKNTAYLQMNSLRAEDTAVYYCARSWYYYEQNPYWYQKEEQALDYWGQGTLVTVSS
VL: DIQMTQSPSSLSASVGDRVTITCRASQSVSSAVAWYQQKPGKAPKLLIYSASSLYSGVPSRFSGSRSGTDFTLTISSLQPEDFATYYCQQSVYSPVTFGQGTKVEIKR
notes: Fab; also called wild type A8
B1 gave a Kd [1] of 56 nM, a Kd [2] of 310 nM and a Kd [3] of 160 nM.
